Source: paper PMC10943247

Tests used:
Test in all cases: mass photometry; (N8-)CRL2^FEM1B wild type or mutant alone; 2 µL of 10 nM protein added to 18 μL of 50 mM HEPES pH 7.5, 150 mM NaCl
[1] = biological target: CRL2^FEM1B complex with FEM1B^F549R, unneddylated (human) (UniProt Q13617)
[2] = biological target: CRL2^FEM1B complex with FEM1B^F549T, unneddylated (human) (UniProt Q13617)
[3] = biological target: CRL2^FEM1B complex with FEM1B^F549S, unneddylated (human) (UniProt Q13617)

Substance “CRL2^FEM1B complex with FEM1B^F549R, unneddylated (from UniProt Q13617 1-745; P62877 1-108; Q15370 1-104; Q15369 17-112; Q9UK73 1-627)” has a stoichiometry N [1] of 2.

Work on “CRL2^FEM1B complex with FEM1B^F549T, unneddylated (from UniProt Q13617 1-745; P62877 1-108; Q15370 1-104; Q15369 17-112; Q9UK73 1-627)” yielded a stoichiometry N [2] of 2.

“CRL2^FEM1B complex with FEM1B^F549S, unneddylated (from UniProt Q13617 1-745; P62877 1-108; Q15370 1-104; Q15369 17-112; Q9UK73 1-627)” showed a stoichiometry N [3] of 2.
